Here are results for one molecule from publication PMC8423358.

The assay has as its target DPP9, short isoform (DPP9S), co-expressed with CARD8 for cryo-EM, Q86TI2. Description: cryo-EM structure. To be noted: remark: other sources report otherwise.

B1: DPP9, short isoform (DPP9S), co-expressed with CARD8 for cryo-EM, Q86TI2-1 1-863 (enzyme)
chain: MATTGTPTADRGDAAATDDPAARFQVQKHSWDGLRSIIHGSRKYSGLIVNKAPHDFQFVQKTDESGPHSHRLYYLGMPYGSRENSLLYSEIPKKVRKEALLLLSWKQMLDHFQATPHHGVYSREEELLRERKRLGVFGITSYDFHSESGLFLFQASNSLFHCRDGGKNGFMVSPMKPLEIKTQCSGPRMDPKICPADPAFFSFINNSDLWVANIETGEERRLTFCHQGLSNVLDDPKSAGVATFVIQEEFDRFTGYWWCPTASWEGSEGLKTLRILYEEVDESEVEVIHVPSPALEERKTDSYRYPRTGSKNPKIALKLAEFQTDSQGKIVSTQEKELVQPFSSLFPKVEYIARAGWTRDGKYAWAMFLDRPQQWLQLVLLPPALFIPSTENEEQRLASARAVPRNVQPYVVYEEVTNVWINVHDIFYPFPQSEGEDELCFLRANECKTGFCHLYKVTAVLKSQGYDWSEPFSPGEDEFKCPIKEEIALTSGEWEVLARHGSKIWVNEETKLVYFQGTKDTPLEHHLYVVSYEAAGEIVRLTTPGFSHSCSMSQNFDMFVSHYSSVSTPPCVHVYKLSGPDDDPLHKQPRFWASMMEAASCPPDYVPPEIFHFHTRSDVRLYGMIYKPHALQPGKKHPTVLFVYGGPQVQLVNNSFKGIKYLRLNTLASLGYAVVVIDGRGSCQRGLRFEGALKNQMGQVEIEDQVEGLQFVAEKYGFIDLSRVAIHGWSYGGFLSLMGLIHKPQVFKVAIAGAPVTVWMAYDTGYTERYMDVPENNQHGYEAGSVALHVEKLPNEPNRLLILHGFLDENVHFFHTNFLVSQLIRAGKPYQLQIYPNERHSIRCPESGEHYEVTLLHFLQEYL
What is called stoichiometry N is a count of units in the complex or per binding partner. In turn, B1 had a stoichiometry N of 2.
